Experimental findings from doi:10.1101/2020.01.31.925156 are described below.

“And” between values parts separate entries of the source, which are not always exact repeats. Equal entries are not always repeated. Where two headings read alike, the source gives them in different places.

Common to all, as to experiment: mass photometry
Assay [1] deals with deglycosylated trastuzumab.
Assay [2] deals with trastuzumab (Herceptin®), immunoglobulin G (IgG) monoclonal antibody.
Assay [3] deals with deglycosylated trastuzumab. The source holds these as a separate data set.
The target of assay [4] is trastuzumab (Herceptin®), immunoglobulin G (IgG) monoclonal antibody. This is another data set of the same source.
In assay [5] the target is deglycosylated trastuzumab. This is another data set of the same source.
Assay [6] has as its target trastuzumab (Herceptin®), immunoglobulin G (IgG) monoclonal antibody. The source holds these as a separate data set.
Assay [7] deals with recombinant human FcRN (His and Avi tagged), neonatal Fc receptor (human) (UniProt P55899).
Assay [8] concerns the target trastuzumab (Herceptin®), immunoglobulin G (IgG) monoclonal antibody. This is another data set of the same source.
In assay [9] the target is recombinant human FcRN (His and Avi tagged), neonatal Fc receptor (human) (UniProt P55899). The source holds these as a separate data set.
Assay [10] has the same target. This is another data set of the same source.
The target is the same in assay [11]. The source holds these as a separate data set.

As to “FcγRIa (CD64 human recombinant, His Tag) (from UniProt P12314) (receptor)”, the Kd in assay [1] is 0.6 nM and 0.7 nM. In [2], the Kd was 0.05 nM and the percent complex formation worked out at 90%. In assay [3], the Kd came to 1 nM and the percent bound antibody was found to be 50%. For the same substance, in assay [4], the equilibrium dissociation constant (Kd) turned out to be 0.026 nM, the koff was determined as 0.00052 s⁻¹ and the on-rate constant (kon) worked out at 1.9e+07 M⁻¹ s⁻¹. In [5], this substance had a dissociation constant (Kd) of 1.1 nM, a koff of 0.0068 s⁻¹ and an on-rate (kon) of 6e+06 M⁻¹ s⁻¹.
Turning to “recombinant human FcRN (His and Avi tagged), neonatal Fc receptor (from UniProt P55899)”, the Kd in assay [6] was > 200 nM; in [7], 44 nM and 171 nM; in [9] it was > 200 nM; in assay [10], 31 nM; in assay [2], > 200 nM; in assay [11], > 200 nM. The Kd of IgG plus two FcRns (second FcRn) in assay [8] is 6.6 nM and 3.9 nM. In assay [8], the Kd of IgG-FcRn monomer (first FcRn) is 59 nM and 225 nM. The stoichiometry N in [8] and in assay [10] was 2 each time.

The Kd is the free concentration of one partner at which half of the binding sites on the other are occupied at equilibrium, for simple one-to-one binding. What is called koff is the rate constant with which the complex falls apart. Low readings indicate a long-lived complex, high ones a short-lived complex. A word on the kon: it is a measure of how fast the partners come together. As usually defined, the stoichiometry N is a count of units in the complex or per binding partner.
